These results are taken from patent publication US9176064B2, “Bisubstrate fluorescent probes for protein kinase CK2” (University of Tartu, priority 2012, dated 2015).

Among the targets are CLK2 (Homo sapiens, UniProt P49760); CDK9-Cyclin T1 (Homo sapiens, UniProt P50750); PAK5 (Homo sapiens, UniProt Q9P286); RSK1 (Homo sapiens, UniProt Q15418); YES1 (Homo sapiens, UniProt P07947); TIE2 (Homo sapiens, UniProt Q02763).
What all share (test): Kinase panel residual activity
What all share (type): biochemical
Holding throughout (conditions): compound at 1 micromolar

For the next data set, the target named is T1, BRSK1 (Homo sapiens, UniProt Q8TDC3).
T1 sequence (Q8TDC3 1-778): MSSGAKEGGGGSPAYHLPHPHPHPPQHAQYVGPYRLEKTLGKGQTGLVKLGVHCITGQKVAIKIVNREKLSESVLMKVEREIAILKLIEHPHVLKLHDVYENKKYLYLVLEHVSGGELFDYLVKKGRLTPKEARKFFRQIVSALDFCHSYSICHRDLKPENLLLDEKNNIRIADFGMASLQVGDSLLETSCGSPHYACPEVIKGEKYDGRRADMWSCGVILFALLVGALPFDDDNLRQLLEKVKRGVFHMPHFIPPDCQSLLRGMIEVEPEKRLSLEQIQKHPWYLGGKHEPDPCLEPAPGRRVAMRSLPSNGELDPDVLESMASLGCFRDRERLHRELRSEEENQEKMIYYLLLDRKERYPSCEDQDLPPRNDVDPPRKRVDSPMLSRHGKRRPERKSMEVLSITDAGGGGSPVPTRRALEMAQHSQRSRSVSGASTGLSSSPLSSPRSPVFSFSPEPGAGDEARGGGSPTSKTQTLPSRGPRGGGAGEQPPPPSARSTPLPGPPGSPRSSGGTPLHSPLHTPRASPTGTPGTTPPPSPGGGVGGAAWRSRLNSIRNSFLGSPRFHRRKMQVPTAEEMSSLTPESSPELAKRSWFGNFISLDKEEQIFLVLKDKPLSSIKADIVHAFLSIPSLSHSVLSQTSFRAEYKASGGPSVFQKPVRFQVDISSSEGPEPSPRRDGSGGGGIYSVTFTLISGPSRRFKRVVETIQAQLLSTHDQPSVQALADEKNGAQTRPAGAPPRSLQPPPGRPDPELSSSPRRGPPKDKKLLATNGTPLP

A further data set deals with T2, TLK1 (Homo sapiens, UniProt Q9UKI8).
T2 sequence (Q9UKI8 1-766): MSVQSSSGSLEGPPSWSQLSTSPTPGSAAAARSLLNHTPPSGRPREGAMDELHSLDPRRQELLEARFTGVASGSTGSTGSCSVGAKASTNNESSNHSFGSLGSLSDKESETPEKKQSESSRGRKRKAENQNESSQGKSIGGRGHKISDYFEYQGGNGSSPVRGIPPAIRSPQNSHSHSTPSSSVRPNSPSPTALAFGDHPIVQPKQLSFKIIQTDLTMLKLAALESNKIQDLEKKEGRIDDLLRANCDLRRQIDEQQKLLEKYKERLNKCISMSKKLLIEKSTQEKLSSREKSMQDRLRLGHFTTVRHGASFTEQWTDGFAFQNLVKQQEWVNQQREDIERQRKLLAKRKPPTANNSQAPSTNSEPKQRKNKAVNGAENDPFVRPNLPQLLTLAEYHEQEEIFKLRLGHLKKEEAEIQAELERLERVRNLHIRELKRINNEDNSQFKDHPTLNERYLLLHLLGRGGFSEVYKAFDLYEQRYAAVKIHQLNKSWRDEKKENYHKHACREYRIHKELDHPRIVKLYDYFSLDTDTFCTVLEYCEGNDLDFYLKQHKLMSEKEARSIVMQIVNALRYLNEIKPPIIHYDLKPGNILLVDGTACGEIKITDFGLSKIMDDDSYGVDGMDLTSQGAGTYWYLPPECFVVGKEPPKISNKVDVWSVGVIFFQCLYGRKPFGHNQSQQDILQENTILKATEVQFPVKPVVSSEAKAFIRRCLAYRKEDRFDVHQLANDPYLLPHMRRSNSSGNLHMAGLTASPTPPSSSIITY

The next data set has as its target T3, CHK1 (Homo sapiens, UniProt O14757).
T3 sequence (O14757 1-476): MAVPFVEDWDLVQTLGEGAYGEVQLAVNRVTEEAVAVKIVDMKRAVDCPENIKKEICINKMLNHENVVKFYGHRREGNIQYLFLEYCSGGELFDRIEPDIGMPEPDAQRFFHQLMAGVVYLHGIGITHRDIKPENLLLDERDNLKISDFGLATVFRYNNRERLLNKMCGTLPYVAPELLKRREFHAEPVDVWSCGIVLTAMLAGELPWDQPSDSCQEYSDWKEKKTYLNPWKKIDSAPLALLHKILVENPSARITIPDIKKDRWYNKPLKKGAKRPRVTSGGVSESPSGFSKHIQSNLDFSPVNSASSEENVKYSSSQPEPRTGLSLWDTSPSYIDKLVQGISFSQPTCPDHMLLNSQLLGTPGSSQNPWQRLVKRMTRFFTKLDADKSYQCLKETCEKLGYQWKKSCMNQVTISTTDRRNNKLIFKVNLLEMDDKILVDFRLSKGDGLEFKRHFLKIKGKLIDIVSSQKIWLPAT

Molecules are shown by their SMILES. Where a SMILES comes first, the peptide text is derived from it. [ ]: non-standard residue; d: D form. The star is where a group is joined. X1 = O=C(CCCCCCCn1cnc2c(Br)c(Br)c(Br)c(Br)c21)*

Sequence of YES1 (P07947 whole entry, species assumed): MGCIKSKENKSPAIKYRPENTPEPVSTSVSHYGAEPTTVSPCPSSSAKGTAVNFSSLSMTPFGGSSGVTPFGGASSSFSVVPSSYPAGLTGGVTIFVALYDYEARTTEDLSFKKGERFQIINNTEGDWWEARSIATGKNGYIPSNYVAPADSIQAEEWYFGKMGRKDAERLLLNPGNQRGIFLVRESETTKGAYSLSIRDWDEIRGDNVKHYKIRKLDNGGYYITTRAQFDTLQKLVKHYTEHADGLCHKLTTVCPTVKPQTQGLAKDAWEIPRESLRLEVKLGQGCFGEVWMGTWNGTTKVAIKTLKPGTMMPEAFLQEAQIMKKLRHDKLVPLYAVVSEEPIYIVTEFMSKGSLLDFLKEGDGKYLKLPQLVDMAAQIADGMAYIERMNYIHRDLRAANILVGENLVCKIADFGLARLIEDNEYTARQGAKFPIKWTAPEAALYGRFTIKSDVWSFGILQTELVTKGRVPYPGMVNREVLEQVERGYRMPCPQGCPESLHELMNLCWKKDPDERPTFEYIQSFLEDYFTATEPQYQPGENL
Sequence of TIE2 (Q02763 23-1124, species assumed): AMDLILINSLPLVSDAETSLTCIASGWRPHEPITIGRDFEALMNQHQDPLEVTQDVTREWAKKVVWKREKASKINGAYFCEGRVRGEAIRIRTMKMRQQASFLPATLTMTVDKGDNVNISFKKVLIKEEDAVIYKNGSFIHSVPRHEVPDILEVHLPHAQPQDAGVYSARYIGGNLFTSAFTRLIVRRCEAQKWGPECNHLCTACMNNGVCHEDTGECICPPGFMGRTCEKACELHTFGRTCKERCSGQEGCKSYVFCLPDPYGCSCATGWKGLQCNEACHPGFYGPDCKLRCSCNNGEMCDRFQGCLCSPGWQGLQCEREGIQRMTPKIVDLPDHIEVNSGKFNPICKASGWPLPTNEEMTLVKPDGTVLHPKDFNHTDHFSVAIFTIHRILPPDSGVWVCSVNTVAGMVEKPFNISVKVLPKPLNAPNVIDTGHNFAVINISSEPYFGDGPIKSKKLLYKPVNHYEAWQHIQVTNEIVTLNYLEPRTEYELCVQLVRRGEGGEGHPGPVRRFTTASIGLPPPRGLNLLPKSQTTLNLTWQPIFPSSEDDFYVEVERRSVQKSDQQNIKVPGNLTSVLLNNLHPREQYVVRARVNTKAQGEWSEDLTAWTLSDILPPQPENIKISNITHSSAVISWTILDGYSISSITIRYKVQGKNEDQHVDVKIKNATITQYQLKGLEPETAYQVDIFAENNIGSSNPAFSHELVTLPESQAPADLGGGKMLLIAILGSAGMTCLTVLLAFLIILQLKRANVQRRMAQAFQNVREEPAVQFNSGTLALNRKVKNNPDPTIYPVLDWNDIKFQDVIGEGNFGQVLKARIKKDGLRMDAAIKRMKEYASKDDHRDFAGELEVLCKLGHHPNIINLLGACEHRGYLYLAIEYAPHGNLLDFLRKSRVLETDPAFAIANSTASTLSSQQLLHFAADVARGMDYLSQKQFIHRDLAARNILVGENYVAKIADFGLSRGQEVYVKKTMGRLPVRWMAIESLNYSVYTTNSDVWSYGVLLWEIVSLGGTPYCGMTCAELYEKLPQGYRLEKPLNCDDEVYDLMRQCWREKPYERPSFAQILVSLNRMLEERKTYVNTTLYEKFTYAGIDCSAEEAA
Sequence of CDK9-Cyclin T1 (P50750 whole entry): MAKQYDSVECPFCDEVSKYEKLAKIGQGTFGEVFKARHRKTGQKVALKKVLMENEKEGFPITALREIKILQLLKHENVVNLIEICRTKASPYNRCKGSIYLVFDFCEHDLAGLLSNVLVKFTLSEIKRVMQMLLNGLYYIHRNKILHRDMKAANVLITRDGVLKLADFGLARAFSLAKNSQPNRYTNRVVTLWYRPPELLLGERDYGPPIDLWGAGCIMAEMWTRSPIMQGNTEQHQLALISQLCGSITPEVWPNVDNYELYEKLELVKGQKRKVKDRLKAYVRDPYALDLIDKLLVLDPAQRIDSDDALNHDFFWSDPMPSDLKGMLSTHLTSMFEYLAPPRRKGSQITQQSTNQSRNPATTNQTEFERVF
Sequence of CDK9-Cyclin T1 (O60563 whole entry partner): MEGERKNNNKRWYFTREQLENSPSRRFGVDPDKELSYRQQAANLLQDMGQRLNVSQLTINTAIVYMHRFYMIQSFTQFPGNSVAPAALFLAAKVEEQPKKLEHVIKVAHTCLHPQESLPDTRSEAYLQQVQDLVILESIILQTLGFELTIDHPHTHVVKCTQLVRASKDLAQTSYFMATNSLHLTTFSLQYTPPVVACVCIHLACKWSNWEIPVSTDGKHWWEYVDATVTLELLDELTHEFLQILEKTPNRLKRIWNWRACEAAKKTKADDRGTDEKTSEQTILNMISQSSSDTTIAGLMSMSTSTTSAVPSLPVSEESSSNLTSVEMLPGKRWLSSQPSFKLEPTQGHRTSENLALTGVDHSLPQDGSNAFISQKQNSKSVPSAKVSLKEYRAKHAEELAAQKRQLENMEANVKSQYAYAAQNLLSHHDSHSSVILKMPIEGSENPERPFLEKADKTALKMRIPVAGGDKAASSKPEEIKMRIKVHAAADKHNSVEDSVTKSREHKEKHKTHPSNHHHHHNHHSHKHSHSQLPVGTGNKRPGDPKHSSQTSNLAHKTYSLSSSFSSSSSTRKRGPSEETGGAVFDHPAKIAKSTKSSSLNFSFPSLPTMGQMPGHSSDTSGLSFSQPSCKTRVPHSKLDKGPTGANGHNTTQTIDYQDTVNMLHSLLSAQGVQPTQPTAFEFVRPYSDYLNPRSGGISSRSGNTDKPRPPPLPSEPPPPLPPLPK
Sequence of PAK5 (Q9P286 whole entry): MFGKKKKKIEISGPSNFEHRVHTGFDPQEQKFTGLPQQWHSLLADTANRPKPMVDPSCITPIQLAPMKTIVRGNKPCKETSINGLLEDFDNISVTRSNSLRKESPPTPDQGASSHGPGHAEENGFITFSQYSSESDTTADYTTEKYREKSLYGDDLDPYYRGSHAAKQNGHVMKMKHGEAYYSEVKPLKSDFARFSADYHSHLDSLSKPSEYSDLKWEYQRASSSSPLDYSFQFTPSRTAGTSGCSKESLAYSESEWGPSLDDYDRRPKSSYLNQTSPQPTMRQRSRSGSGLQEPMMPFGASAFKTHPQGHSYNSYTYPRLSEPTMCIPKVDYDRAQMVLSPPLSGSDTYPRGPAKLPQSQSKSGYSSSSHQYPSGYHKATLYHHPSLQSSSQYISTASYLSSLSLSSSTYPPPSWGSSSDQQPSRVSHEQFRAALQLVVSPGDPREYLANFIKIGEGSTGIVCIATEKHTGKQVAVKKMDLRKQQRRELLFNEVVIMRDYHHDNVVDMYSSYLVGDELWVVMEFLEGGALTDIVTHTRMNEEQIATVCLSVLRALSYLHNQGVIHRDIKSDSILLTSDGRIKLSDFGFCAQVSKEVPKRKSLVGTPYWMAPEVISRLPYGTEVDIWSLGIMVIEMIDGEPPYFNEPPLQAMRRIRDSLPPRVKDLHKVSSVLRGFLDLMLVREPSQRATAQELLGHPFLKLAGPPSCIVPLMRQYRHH
Sequence of CLK2 (P49760 whole entry, species assumed): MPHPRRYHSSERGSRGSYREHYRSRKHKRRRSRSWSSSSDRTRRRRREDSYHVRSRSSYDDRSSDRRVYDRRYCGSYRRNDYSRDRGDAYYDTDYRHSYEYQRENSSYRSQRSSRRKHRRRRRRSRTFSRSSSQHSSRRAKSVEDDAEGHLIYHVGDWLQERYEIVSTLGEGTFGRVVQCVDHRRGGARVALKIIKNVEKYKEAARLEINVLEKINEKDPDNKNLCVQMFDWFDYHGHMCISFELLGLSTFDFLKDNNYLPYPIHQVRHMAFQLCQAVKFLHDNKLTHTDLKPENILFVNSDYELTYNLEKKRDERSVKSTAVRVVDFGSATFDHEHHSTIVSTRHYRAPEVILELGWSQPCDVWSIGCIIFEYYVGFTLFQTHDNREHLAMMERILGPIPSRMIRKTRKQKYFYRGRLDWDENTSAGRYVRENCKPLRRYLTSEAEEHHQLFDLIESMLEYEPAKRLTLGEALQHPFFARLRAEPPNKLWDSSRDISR
Sequence of RSK1 (Q15418 whole entry, species assumed): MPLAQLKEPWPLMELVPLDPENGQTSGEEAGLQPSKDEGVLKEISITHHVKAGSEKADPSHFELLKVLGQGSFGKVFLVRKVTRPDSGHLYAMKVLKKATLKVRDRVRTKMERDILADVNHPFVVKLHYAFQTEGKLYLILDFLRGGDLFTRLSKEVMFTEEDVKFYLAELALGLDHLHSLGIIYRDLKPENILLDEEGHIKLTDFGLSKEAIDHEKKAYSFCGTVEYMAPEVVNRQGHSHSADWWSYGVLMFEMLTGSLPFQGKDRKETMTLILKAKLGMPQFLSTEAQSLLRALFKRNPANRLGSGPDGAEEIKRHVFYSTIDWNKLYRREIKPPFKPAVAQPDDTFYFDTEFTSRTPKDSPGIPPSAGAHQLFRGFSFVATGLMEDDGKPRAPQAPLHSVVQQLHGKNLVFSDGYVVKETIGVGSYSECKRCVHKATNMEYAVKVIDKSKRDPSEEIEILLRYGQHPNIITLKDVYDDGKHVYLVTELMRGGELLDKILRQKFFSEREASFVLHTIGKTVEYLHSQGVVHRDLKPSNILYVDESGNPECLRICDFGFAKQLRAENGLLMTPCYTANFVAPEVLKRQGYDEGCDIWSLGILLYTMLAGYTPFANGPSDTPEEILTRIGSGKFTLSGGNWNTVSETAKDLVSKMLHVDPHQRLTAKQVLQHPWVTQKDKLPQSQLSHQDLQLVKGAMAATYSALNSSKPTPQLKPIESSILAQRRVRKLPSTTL

Turning to `NCCCC[C@H](NC(=O)[C@H](CC(=O)O)NC(=O)[C@H](CC(=O)O)NC(=O)[C@H](CC(=O)O)NC(=O)[C@H](CC(=O)O)NC(=O)[C@H](CC(=O)O)NC(=O)[C@@H](CC(=O)O)NC(=O)CCCCCCCn1cnc2c(Br)c(Br)c(Br)c(Br)c21)C(=O)O` [TBBI-OcA-(D-Asp)-(L-Asp)5-(L-Lys)-OH] (X1-[dD]DDDDDK-OH), the remaining activity (in general, the signal under treatment as a percentage of the control signal) at 1 µM with CLK2 is 24%; in the data set with CDK9-Cyclin T1 it was 65%; with PAK5, 81%; in the data set with RSK1 it was 88%; with BRSK1, 95%; with YES1, 103%. Further, the values for the remaining activity at 1 µM in the data set with TIE2, with TLK1 and with CHK1 were 105%, 107% and 134%, respectively.
